The results in this text go back to IntAct's records for PubMed 18562279.

The target in the assay is akt1_human AKT1 (UniProt P31749).
akt1_human AKT1, sequence (P31749 whole entry): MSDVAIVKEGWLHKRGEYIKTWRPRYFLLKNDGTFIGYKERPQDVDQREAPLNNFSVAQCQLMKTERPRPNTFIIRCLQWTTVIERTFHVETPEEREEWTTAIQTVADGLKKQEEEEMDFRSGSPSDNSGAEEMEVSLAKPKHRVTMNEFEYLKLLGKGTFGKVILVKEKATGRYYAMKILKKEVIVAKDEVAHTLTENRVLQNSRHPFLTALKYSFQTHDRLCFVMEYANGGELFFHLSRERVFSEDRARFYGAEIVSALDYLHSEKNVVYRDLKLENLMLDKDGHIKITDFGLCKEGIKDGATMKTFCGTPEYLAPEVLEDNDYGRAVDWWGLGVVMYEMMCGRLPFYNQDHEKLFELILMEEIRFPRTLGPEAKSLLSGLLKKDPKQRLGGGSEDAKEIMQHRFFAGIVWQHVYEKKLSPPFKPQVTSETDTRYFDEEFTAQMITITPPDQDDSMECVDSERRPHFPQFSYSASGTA

Turning to “THO complex subunit 4 (Homo sapiens) (from UniProt Q86V81) S34A”, the “effect of a mutation on the interaction” value is “disrupting interaction”.

With “THO complex subunit 4 (Homo sapiens) (from UniProt Q86V81) T219A”, the “effect of a mutation on the interaction” value was “disrupting interaction”.
